T1: monkey PD-1 with mFc (monkey)
T1 construct: also called monkey PD-1-mFc; monkey PD-1 dimer
T1 chain: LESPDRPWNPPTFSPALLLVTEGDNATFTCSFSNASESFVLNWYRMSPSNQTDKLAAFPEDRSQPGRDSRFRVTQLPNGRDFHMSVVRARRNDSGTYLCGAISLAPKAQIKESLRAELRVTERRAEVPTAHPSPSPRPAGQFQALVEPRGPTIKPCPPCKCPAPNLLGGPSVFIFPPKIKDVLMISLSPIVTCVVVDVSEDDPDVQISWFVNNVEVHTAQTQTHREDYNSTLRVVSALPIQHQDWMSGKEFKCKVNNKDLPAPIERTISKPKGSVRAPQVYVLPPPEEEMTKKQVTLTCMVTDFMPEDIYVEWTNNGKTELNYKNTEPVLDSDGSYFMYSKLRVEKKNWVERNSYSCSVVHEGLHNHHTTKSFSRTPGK

T2: recombinant cynomolgus monkey PD-1 expressed with a C-terminal myc-myc-hexahistidine tag (cynomolgus monkey (Macaca fascicularis))
T2 construct: monomeric; also called MfPD-1-MMH
T2 chain: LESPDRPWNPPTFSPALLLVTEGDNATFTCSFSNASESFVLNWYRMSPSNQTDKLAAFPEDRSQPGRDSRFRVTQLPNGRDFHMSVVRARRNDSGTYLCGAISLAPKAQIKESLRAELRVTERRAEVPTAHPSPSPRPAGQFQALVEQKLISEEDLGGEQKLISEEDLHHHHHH


What was measured:
[1] = molecular target: T3, full length human PD-1 on HEK293/hPD-1 cells (human, UniProt Q15116 25-288); assay: FACS, 100 nM mAb
[2] = molecular target: PD-1 chimera: extracellular domain of human PD-1 with trans-membrane and cytoplasmic domains of human CD300a, … (human, UniProt Q9UGN4 181-299, limits assumed); assay: cell-based or functional assay
[3] = molecular target: T3, full length human PD-1 on HEK293/hPD-1 …; assay: FACS, 100 nM mAb, HEK293/hPD-1 cells;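 further: antibodies incubated with cells for 15-30 min on ice, bound antibody detected through a secondary F(ab′)2 by flow cytometry, with parental HEK293 cells tested in parallel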
[4] = molecular target: T3, full length human PD-1 on HEK293/hPD-1 …; assay: FACS dose response, HEK293/hPD-1 cells
[5] = molecular target: T4, recombinant human PD-1 dimer expressed with a C-terminal mouse IgG2a Fc tag (human); assay: competition ELISA: 1.5 nM hPD-1-mFc to coated hPD-L1-hFc
T4 construct: also called hPD-1-mFc

[6] = molecular target: T5, dimeric biotinylated human PD-1 protein with a C-terminal human Fc tag (human, biotinylated (sites not given)); assay: competition ELISA: 200 pM biot-hPD-1-hFc to coated hPD-L1-mFc
T5 construct: also called biot-hPD-1-hFc

[7] = molecular target: T4, recombinant human PD-1 dimer expressed …; assay: BLI Octet: 100 nM hPD-1-mFc + 500 nM mAb to captured hPD-L1-hFc
monkey PD-1 with mFc [8] = molecular target: T1, monkey PD-1 with mFc; assay: SPR, captured mAb, 25 C;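 further: purified anti-PD-1 antibodies tested on Biacore 4000 or T200 instruments, rate constants obtained via 1:1 binding model fit, with KD as kd/ka and half-life as ln2/(60·kd)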
monkey PD-1 with mFc [9] = molecular target: T1, monkey PD-1 with mFc; assay: SPR, captured mAb, 37 C;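 further: Real-time Biacore surface plasmon resonance biosensor readout of PD-1 reagent binding to purified anti-PD-1 monoclonal antibodies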
[10] = molecular target: T6, recombinant human PD-1 expressed with a C-terminal human IgG1 Fc tag (human); assay: SPR Biacore 3000: 100 nM hPD-1.hFc + 500 nM mAb to captured hPD-L1.mFc;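 further: inhibition study with anti-PD-1 mAbs, SPR responses tracked in real time and read at the close of each step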
T6 construct: also called hPD-1-hFc; hPD1-hFc

[11] = molecular target: T7, recombinant human PD-L1 expressed with a C-terminal mouse IgG2a Fc tag (human); assay: SPR Biacore 3000: 500 nM mAb alone (no hPD-1.hFc) over captured hPD-L1.mFc surface, control
T7 construct: also called hPD-L1-mFc; hPD-L1.mFc

[12] = molecular target: T8, recombinant human PD-1 expressed with a C-terminal myc-myc-hexahistidine tag (human); assay: SPR, mAb captured, 37C;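 further: rate constants from fitting sensorgrams to a 1:1 binding model, KD derived as kd divided by ka and half-life as ln2/(60·kd)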
T8 construct: monomeric; also called hPD-1-MMH; human PD-1-MMH

[13] = molecular target: T9, human PD-1 dimer (human PD-1-mFc or human PD-1-hFc) (human, UniProt Q15116 25-170); assay: SPR, mAb captured, 25C;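 further: surface plasmon resonance on Biacore, PD-1 flowed over captured anti-PD-1 antibodies, rate constants from a 1:1 binding model fit, KD taken as kd/ka and t½ as ln2/(60·kd)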
T9 construct: also called hPD-1-mFc; hPD1-hFc

[14] = molecular target: T9, human PD-1 dimer (human PD-1-mFc or …); assay: SPR, mAb captured, 37C
[15] = molecular target: T2, recombinant cynomolgus monkey PD-1 …; assay: SPR, mAb captured, 25C;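 further: rates from fitting Biacore data for PD-1 binding to anti-PD-1 antibodies with a 1:1 model, KD computed as koff/kon and t½ as ln2/(60·koff)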
[16] = molecular target: T2, recombinant cynomolgus monkey PD-1 …; assay: SPR, mAb captured, 37C

Binder | Emax mean [%] @ 100 nM [2] [%] | MFI [3] [MFI] | % blocking at 200 nM antibody [5] [%] | IC50 [5] [nM] | 100 nM Monkey PD-1-mFc Bound (RU) (monkey PD-1 with mFc [8]) | Kd (monkey PD-1 with mFc [8]) [nM] | t1/2 (monkey PD-1 with mFc [8]) [min] | 100 nM Monkey PD-1-mFc Bound (RU) (monkey PD-1 with mFc [9]) | Kd (monkey PD-1 with mFc [9]) [nM] | t1/2 (monkey PD-1 with mFc [9]) [min] | Kd [12] [nM] | t½ [12] [min] | Kd [13] [nM] | t½ [13] [min] | Kd [14] [nM] | t½ [14] [min] | Kd [15] [nM] | t½ [15] [min] | Kd [16] [nM] | t½ [16] [min] | further results
H2aM7794N (antibody, V domains shown, human variable regions, mouse IgG2a Fc; also called H2M7794N) VH: QLQLQESGPDLVKPSDTLSLTCTVSDDSISSTTYYWAWIRQPPGKGLEWIGSMSYNGNNYYNPSLKSRVAISAGTSQKQFSLKLTSVTAADTAVYHCARHLGYNGNWYPFDFWGQGILVTVSS VL: not shown | 170 | 19100 | 95 | 1.1 | – | – | – | – | – | – | – | – | – | – | – | – | – | – | – | – | ratio of MFI HEK293/hPD-1 to HEK293 parental cells [1]: 71; Concentration (M) of Antibody at 150% activation [2]: 4.09e-08 M; EC50 [4]: 1.37 nM; Max Geom. Mean MFI @ 100 nM [4]: 16400 MFI; % blocking at 50 nM antibody [6]: 99%; IC50 [6]: 0.23 nM; % Blocking [7]: 114%; binding of the mixture (nm) [7]: -0.01 nm
H4H9019P (antibody, V domains shown, fully human; H4H prefix (human IgG4 Fc)) VH: EVQLVESGGGVVRPGGSLRLSCAASGFTFDDYGMSWVRQVPGKGLEWVSGISWNDGKTVYAESVKGRFIISRDNAKNSLYLEMNSLRAEDTALYYCARDWQYLIERYFDYWGQGTLVTVSS VL: not shown | 180 | 8610 | 98 | 1.3 | 31 | 1.97 | 129 | 36 | 3.17 | 45 | – | – | – | – | – | – | – | – | – | – | Concentration (M) of Antibody at 150% activation [2]: 1.79e-08 M; EC50 [4]: 1.4 nM; Max Geom. Mean MFI @ 100 nM [4]: 29200 MFI; binding of the mixture (RU) [10]: -1 RU; 500 nM of anti-PD-1 monoclonal antibody (RU) [11]: -2 RU
H4xH8992P (antibody, V domains shown, human IgG4 Fc with 2 or more amino acid changes (US20100331527)) VH: EVQLVESGGGLVQPGRSLRLSCVASGFALHDYAMHWVRQVPGKGLEWVSSISWNSGVIGYADSLKGRFTISRDNAKNSLYLQMNSLRAEDTALYYCAKGSGSYYVSWFDPWGQGTLVTVSS VL: not shown | 178 | 17500 | 93 | 1.3 | 122 | 1.24 | 46 | 86 | 4.38 | 8 | – | – | – | – | – | – | – | – | – | – | binding of the mixture (RU) [10]: 2 RU; 500 nM of anti-PD-1 monoclonal antibody (RU) [11]: 3 RU
H4xH8999P (antibody, V domains shown, human IgG4 Fc with 2 or more amino acid changes (US20100331527)) VH: QLQLQESGPGLVQPSETLSLTCTVSGDSISSTAYHWDWIRQPPGKGLEWIGTITYNGNTYFNPSLKSRVTISVDTSKNQFSLKLLSMTAAETAVFYCARHLGYNSDFFPFDFWGQGTLVTVSS VL: not shown | 217 | 28900 | 88 | 1.3 | 126 | 0.21 | 100 | 83 | 0.7 | 23 | – | – | – | – | – | – | – | – | – | – | % Blocking [10]: 100%; binding of the mixture (RU) [10]: 0 RU; 500 nM of anti-PD-1 monoclonal antibody (RU) [11]: 1 RU
H4xH9145P2 (antibody, V domains shown, Human IgG4 Fc with 2 or more amino acid changes (H4xH)) VH: QVQLVESGGGVVQPGRSLRLSCSASGFTFSAYAMHWVRQAPGKGLEWVAAISYGGSDKYYADSVKGRFTISRDNSKNTLYLQMNSLRTDDTAVYYCAKSAHWNFFFDYWGQGTLVTVSS VL: not shown | – | – | – | – | – | – | – | – | – | – | 94 | 0.9 | 2.4 | 73 | 3.58 | 20 | 43.1 | 9.3 | 83.7 | 0.8 | koff [12]: 0.0123 s⁻¹; kon [12]: 131000 M⁻¹ s⁻¹; koff [13]: 0.000158 s⁻¹; kon [13]: 65800 M⁻¹ s⁻¹; koff [14]: 0.000571 s⁻¹; kon [14]: 160000 M⁻¹ s⁻¹; koff [15]: 0.00124 s⁻¹; kon [15]: 28600 M⁻¹ s⁻¹; koff [16]: 0.0143 s⁻¹; kon [16]: 171000 M⁻¹ s⁻¹
H4xH8999P (antibody, V domains shown, Human IgG4 Fc with 2 or more amino acid changes (H4xH)) VH: QLQLQESGPGLVQPSETLSLTCTVSGDSISSTAYHWDWIRQPPGKGLEWIGTITYNGNTYFNPSLKSRVTISVDTSKNQFSLKLLSMTAAETAVFYCARHLGYNSDFFPFDFWGQGTLVTVSS VL: not shown | – | – | – | – | – | – | – | – | – | – | 15.7 | 1.2 | 0.217 | 96 | 0.596 | 26 | 3.09 | 8.7 | 9.41 | 1.2 | –
H4xH9008P (antibody, V domains shown, Human IgG4 Fc with 2 or more amino acid changes (H4xH)) VH: EVQLVESGGGLVRPGGSLRLSCAASGFTFSTYAMAWVRQTPGKGLEGVSAIGGSGDSTYYVDSVKGRFTISRDNSKSTLFLQMNSLRAEDTAVYYCVKVRNYDGSFDIWGQGTMVTVSS VL: not shown | – | – | – | – | – | – | – | – | – | – | 62.6 | 1.4 | 0.796 | 412 | ≤ 0.181 | ≥ 1160 | 23.8 | 4.6 | 23.5 | 0.8 | –
H4H7795N2 (antibody, human IgG4 S228P, kappa, V domains shown) VH: EVQVVESGGGLVEPGRSLRLSCKASGFTFDDYAMHWVRQTPGKALEWVSGISWSGNNIGYADSVKGRFTISKDDAKNSLYLQMNSLRPEDTALYYCTKDISITGTLDAFDVWGQGTMVTVSS VL: DIQMTQSPISVSASVGDRVTITCRASQGISNWLAWYQQKPGIAPKLLIYSASSLQSGVPSRFRGSGSGTDFTLTIGSLQPEDFATYYCQQAHSFPLTFGGGTKVEIKR | – | – | – | – | – | – | – | – | – | – | 104 | 1.7 | 0.615 | 125 | 1.65 | 44 | 22.4 | 8 | 88.3 | 1.7 | koff [12]: 0.00664 s⁻¹; kon [12]: 64100 M⁻¹ s⁻¹; koff [13]: 9.25e-05 s⁻¹; kon [13]: 150000 M⁻¹ s⁻¹; koff [14]: 0.000264 s⁻¹; kon [14]: 160000 M⁻¹ s⁻¹; koff [15]: 0.00148 s⁻¹; kon [15]: 65900 M⁻¹ s⁻¹; koff [16]: 0.00689 s⁻¹; kon [16]: 78000 M⁻¹ s⁻¹
H4H7798N (antibody, human IgG4 S228P, kappa, V domains shown) VH: EVQLLESGGVLVQPGGSLRLSCAASGFTFSNFGMTWVRQAPGKGLEWVSGISGGGRDTYFADSVKGRFTISRDNSKNTLYLQMNSLKGEDTAVYYCVKWGNIYFDYWGQGTLVTVSS VL: DIQMTQSPSSLSASVGDSITITCRASLSINTFLNWYQQKPGKAPNLLIYAASSLHGGVPSRFSGSGSGTDFTLTIRTLQPEDFATYYCQQSSNTPFTFGPGTVVDFRR | – | – | – | – | – | – | – | – | – | – | 7.48 | 7 | 0.122 | 214 | 0.175 | 100 | 3.86 | 21 | 10.5 | 5 | koff [12]: 0.0017 s⁻¹; kon [12]: 227000 M⁻¹ s⁻¹; koff [13]: 5.4e-05 s⁻¹; kon [13]: 441000 M⁻¹ s⁻¹; koff [14]: 0.000115 s⁻¹; kon [14]: 660000 M⁻¹ s⁻¹; koff [15]: 0.000551 s⁻¹; kon [15]: 143000 M⁻¹ s⁻¹; koff [16]: 0.00223 s⁻¹; kon [16]: 213000 M⁻¹ s⁻¹

Source: patent US20150203579A1 (Regeneron, published 2015)
